Assay results as given in patent US10502741B2, “Means and methods for detecting activated MALT1” (Helmholtz Zentrum München Deutsches Forschungszentrum für …, priority 2014, dated 2019).

Tests used:
cathepsin B [1] = target: T1, cathepsin B (Homo sapiens, UniProt P07858); test: Cathepsin B cleavage assay (zRR-AMC substrate); type: biochemical; parameters: purchased BioVision; details: 0.2 ng cathepsin B, 1 mM zRR-AMC, 2 h at 30° C.
Method: (§1) C) Impact of indicated compounds on MALT1, Caspase8 and cathepsin B was tested in in vitro cleavage assays using fluorescent substrates. Results and SD from three independent experiments are shown.
0.2 ng cathepsin B together with probe 5, z-VRPR-FMK (SEQ ID No. 6), mepazine or CA-074 was incubated with 1 mM zRR-AMC substrate for 2 h at 30° C. Assay was performed in 0.1 M sodium acetate pH 5.5, 10 mM DTT and 0.1 mM EDTA. Again, increase of AMC fluorescence is measured in a Synergy 2 Microplate Reader (Biotek).

MALT1 = target: T2, MALT1 (Homo sapiens, UniProt Q9UDY8); test: MALT1 in vitro cleavage assay using fluorescent substrate; type: biochemical
T2 construct: GST
T2 sequence (Q9UDY8 1-824): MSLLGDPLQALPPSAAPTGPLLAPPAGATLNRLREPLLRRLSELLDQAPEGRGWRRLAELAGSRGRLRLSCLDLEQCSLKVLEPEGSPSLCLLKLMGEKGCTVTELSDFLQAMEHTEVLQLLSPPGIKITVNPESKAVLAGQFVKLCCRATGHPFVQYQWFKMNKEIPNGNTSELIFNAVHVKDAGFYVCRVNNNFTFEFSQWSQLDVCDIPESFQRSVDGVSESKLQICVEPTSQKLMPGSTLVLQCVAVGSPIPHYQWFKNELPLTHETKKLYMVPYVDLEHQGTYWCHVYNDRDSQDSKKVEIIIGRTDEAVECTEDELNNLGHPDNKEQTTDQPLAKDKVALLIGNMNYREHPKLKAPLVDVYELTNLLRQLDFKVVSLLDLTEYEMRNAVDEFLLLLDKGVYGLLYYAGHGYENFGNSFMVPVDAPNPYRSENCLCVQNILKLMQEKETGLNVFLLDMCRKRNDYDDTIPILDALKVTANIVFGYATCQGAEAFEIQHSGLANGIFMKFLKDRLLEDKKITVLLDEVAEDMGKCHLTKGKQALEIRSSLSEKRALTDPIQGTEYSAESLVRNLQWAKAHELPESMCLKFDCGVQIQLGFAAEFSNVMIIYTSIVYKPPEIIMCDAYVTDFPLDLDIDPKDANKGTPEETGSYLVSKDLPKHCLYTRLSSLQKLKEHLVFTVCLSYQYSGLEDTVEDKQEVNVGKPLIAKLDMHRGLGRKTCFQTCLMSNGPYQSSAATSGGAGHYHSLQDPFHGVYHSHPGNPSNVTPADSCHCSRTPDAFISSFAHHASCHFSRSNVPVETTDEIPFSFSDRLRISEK
Method: as §1
Preferably, MALT1 activity is determined in a MALT1 cleavage assay. […] The assay may be performed in cleavage buffer comprising for example 50 mM MES, 1 M sodium citrate pH 7, 150 mM NaCl, 10% sucrose, 0.1% chaps, 10 mM DTT. Catalytically active MALT1 cleaves the substrate and an increase of AMC fluorescence can be measured.

cathepsin B [2] = target: T1, cathepsin B; test: Labeling with diagnostic inhibitor in cell extracts (gel-based, fluorescence scan): about 30 kDa cathepsin B band; parameters: endogenous in cells; host or cells: Jurkat T cells; HBL1 and other DLBCL cell lines
Method: (§2) Jurkat T cells were cultured in standard RPMI medium containing 10% FCS, 100 U/ml Penicillin/Streptomycin and 2 mM Glutamin. DNA transfection of 6 μg DNA in 8×10^6 Jurkat T cells was performed by electroporation in a GenePulser Xcell (BioRad) with a 220 Volt pulse. For siRNA experiments, Jurkat T cells were transfected with 100 nM siRNA and Atufect transfection reagent (Silence Therapeutics, Berlin). Jurkat T cells were stimulated either with 200 ng/ml PMA (phorbol 12-myristate 13-acetate) and 300 ng/ml Ionomycin (both Calbiochem) or CD3/CD28 antibody co-ligation (human CD3: 1 μg/ml; human CD28: 4 μg/ml; mouse IgG1: 2 μg/ml; mouse IgG2a: 2 μg/ml; BD Biosciences). DLBCL cell lines (HBL1, TMD8, OCI-Ly3, U2932, RIVA, BJAB, Su-DHL-4 and Su-DHL-6) were cultured in standard RPMI medium containing 20% FCS, 100 U/ml Penicillin/Streptomycin and 2 mM Glutamin. OCI-Ly10 cell line was cultured in IMDM containing 20% human serum, 100 U/ml Penicillin/Streptomycin, 2 U/ml heparine, 50 μM β-mercaptoethanol. Inhibitors 10 μM (z-VRPR-FMK, Mepazine, Thioridazine, CA-074Me) were added to the cells in media for 1 h, prior to stimulation and labeling with diagnostic MALT1 inhibitor.
Jurkat T cells (1-2×10^7), primary human PBMCs or primary human T cells (0.25 or 1×10^7) were lysed in 150 μl co-IP buffer without protease inhibitors. DLBCL (3×10^7) were lysed in 250 μl buffer. After centrifugation (14000 rpm, 10 min, 4° C.), 100 μl extract (DLBCL: 200 μl) was stained with probe 5 or probe 6 (3 μM end) for 50 min at 29° C., mixed with 4× loading dye and boiled.

active MALT1 = target: T3, active MALT1 (Homo sapiens, UniProt Q9UDY8); test: ELISA-based assay (MALT1 ELASA) on streptavidin-coated plates with MALT1 antibody detection; type: cell-based; details: inhibitor-treated (10 μM) DLBCL cells, probe 7
T3 construct: endogenous in cells; host or cells: Jurkat T cells, primary human PBMCs and T cells, DLBCL cell lines (HBL1, TMD8, OCI-Ly3, OCI-Ly10, U2932, RIVA, BJAB, Su-DHL-4, Su-DHL-6)
T3 sequence (Q9UDY8 1-824): T2 sequence (Q9UDY8 1-824)
Method: as §2
Untreated DLBCL (1×10^7), primary T cells (0.25×10^7) or Jurkat T cells (0.2-1×10^7) (stimulated or not) were lysed in 300 μl co-IP buffer without protease inhibitors, centrifuged, incubated with probe 7 (concentration as depicted) for 1 h at RT, then transferred to streptavidin-coated plates (96 well, clear) and incubated o/n at 4° C. After blocking with 2% BSA in PBS-T, detection was performed by incubation with MALT1 primary antibody (1 h, RT) and HRP-coupled secondary antibody (1 h, RT). […] was determined after TMB substrate incubation in a photometer (Bio-Tek).

Substance: z-VRPR-FMK (Z N-terminal cap, FMK warhead)
- inhibition of cathepsin B activity in vitro (cathepsin B [1]): abrogated cathepsin B activity even though slightly less efficient
- inhibition of MALT1 protease activity in vitro (MALT1): inhibit MALT1
- effect of inhibitor on the about 30 kDa cathepsin B signal labeled by probe 6 (cathepsin B [2]; HBL1 cells, inhibitors 10 μM each): sensitive
- effect of inhibitor pretreatment on the band below 34 kDa (cathepsin B) labeled by probe 5 (cathepsin B [2]; Jurkat T cells, 10 μM inhibitor, probe 5): reduced
- effect of inhibitor on active MALT1 signal in DLBCL cells (active MALT1): strongly reduced
